{"source": "patent US20040185113A1", "about": "“Fine inorganic particles having drug included therein, method for preparation thereof and pharmaceutical preparation comprising fine inorganic particles having drug included therein” (priority 2001, published 2004)", "molecules": {"B1": {"name": "free G-CSF: granulocyte colony-stimulating factor (Chugai Pharmaceutical) in 1% BSA/Tris-HCl solution, control (protein, UniProt P09919 31-207, looked up)", "Granulocyte …": "TPLGPASSLPQSFLLKCLEQVRKIQGDGAALQEKLVSECATYKLCHPEELVLLGHSLGIPWAPLSSCPSQALQLAGCLSQLHSGLFLYQGLLQALEGISPELGPTLDTLQLDVADFATTIWQQMEELGMAPALQPTQGAMPAFASAFQRRAGGVLVASHLQSFLEVSYRVLRHLAQP"}}, "experiment": "G-CSF release test and stability of G-CSF in buffer solution at room temperature", "assay_type": "physicochemical", "settings": "1% BSA/Tris-HCl (pH 7.2), ELISA, FIG. 4", "description": "Six hundred fifty μl of 5M CaCl2 was admixed with 250 μl of 500 μg/ml G-CSF with stirring. Then 2.5 ml of 1M Na2CO3 was added and stirred for 10 minutes to prepare CaCO3 particles. Five ml of H2O was added to the particles, and the mixture was centrifuged at 2,000 rpm for 5 min to remove the supernatant. To the resultant precipitate, 12.5 ml of H2O was added, and 1 ml of the mixture was taken into a 2.0 ml test tube. The test tube and content was centrifuged at 2,000 rpm for 5 min to remove the supernatant which was used for ELISA. To the resultant precipitate, 1 ml of 1% BSA/Tris—HCl (pH 7.2) was added and shaken at room temperature. The mixture was centrifuged every 24 hours at 2,000 rpm for 5 min to collect the supernatant and to the resultant precipitate 1 ml of 1% BSA/Tris—HCl (pH 7.2) was added again, and this operation was continued for 7 days. The last precipitate was dissolved with hydrochloric acid and used for ELISA. G-CSF was assayed using ELISA Kit manufactured by IBL Co. and the total (cumulative) amount of G-CSF released from the G-CSF-encapsulating CaCO3 preparation was shown. […] A part of the mixture was collected every 24 hours, and the amount of G-CSF was determined by ELISA to examine the stability of G-CSF at room temperature."}
{"molecule": "B1", "values": [{"measurement": "stability of G-CSF", "value": "unstableness"}]}
